What was measured:
NC(=O)NC(N)=O [1] = test system: T1, NC(=O)NC(N)=O; assay: GDH-coupled steady-state kinetics (KM); format: biochemical, Rhizobium johnstonii; conditions: active site
T1 construct: wild type, N-terminal 6xHis-tag

NC(=O)NC(N)=O [2] = assay: GDH-coupled steady-state kinetics (KM); format: biochemical, Rhizobium johnstonii; conditions: active site

biuret hydrolase (BiuH) (Rhizobium johnstonii 3841; Q215N), sequence (chain, as listed by the source Q215N): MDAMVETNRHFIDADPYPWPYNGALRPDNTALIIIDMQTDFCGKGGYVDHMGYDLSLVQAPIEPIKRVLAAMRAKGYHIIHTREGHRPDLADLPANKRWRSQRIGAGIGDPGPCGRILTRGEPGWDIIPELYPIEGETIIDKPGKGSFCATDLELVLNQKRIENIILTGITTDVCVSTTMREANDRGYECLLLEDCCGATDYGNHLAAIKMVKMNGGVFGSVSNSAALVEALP
biuret hydrolase (BiuH) (Rhizobium johnstonii 3841; K142R), sequence (chain, as listed by the source K142R): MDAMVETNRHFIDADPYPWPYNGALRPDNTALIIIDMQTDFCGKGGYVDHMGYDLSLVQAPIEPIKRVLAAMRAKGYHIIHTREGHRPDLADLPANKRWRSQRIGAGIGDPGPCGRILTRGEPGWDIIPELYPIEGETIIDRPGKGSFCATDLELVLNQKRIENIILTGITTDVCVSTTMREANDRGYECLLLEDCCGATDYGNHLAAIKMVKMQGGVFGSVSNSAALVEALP
biuret hydrolase (BiuH) (Rhizobium johnstonii 3841), sequence (chain, as listed by the source): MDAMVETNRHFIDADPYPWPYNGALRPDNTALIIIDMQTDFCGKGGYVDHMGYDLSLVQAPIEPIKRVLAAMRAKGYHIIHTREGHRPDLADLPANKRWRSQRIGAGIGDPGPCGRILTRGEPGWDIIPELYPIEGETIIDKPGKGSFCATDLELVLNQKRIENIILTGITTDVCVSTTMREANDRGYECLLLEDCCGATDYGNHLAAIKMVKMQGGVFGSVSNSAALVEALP
biuret hydrolase (BiuH) (Rhizobium johnstonii 3841; F41W), sequence (chain, as listed by the source F41W): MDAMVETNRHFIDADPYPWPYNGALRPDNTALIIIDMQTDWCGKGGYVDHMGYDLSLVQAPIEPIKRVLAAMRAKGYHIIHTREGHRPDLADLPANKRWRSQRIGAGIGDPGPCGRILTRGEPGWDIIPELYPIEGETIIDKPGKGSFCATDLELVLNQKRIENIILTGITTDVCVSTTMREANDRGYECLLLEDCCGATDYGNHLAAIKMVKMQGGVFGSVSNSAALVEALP

| Substance | Km (NC(=O)NC(N)=O [1]) | kcat (NC(=O)NC(N)=O [1]) | kcat/Km (NC(=O)NC(N)=O [1]) | Km (NC(=O)NC(N)=O [2]) | kcat (NC(=O)NC(N)=O [2]) | kcat/Km (NC(=O)NC(N)=O [2]) |
| --- | --- | --- | --- | --- | --- | --- |
| biuret hydrolase (BiuH) (Rhizobium johnstonii 3841) | 79 ± 7 µM | 11.9 ± 0.3 s⁻¹ | 150000 M⁻¹ s⁻¹ | – | – | – |
| biuret hydrolase (BiuH) (Rhizobium johnstonii 3841; F41W) | – | – | – | 127 ± 8 µM | 0.26 ± 0.003 s⁻¹ | 2050 M⁻¹ s⁻¹ |
| biuret hydrolase (BiuH) (Rhizobium johnstonii 3841; K142R) | – | – | – | 139 ± 8 µM | 0.07 ± 0.001 s⁻¹ | 504 M⁻¹ s⁻¹ |
| biuret hydrolase (BiuH) (Rhizobium johnstonii 3841; Q215N) | – | – | – | 48 ± 2 µM | 0.19 ± 0.002 s⁻¹ | 3960 M⁻¹ s⁻¹ |
